Measurements taken from PMC7417313.

What was measured:
Assay in all cases: SPR; His-tagged rH fragment held on a Ni-charged NTA chip (BIAcore X or 3000; 500-1,000 RU, reloaded for each injection), C3 protein injected in HBS-P (10 mM HEPES pH 7.4, 150 mM NaCl, 0.005% P20) at 5 μL/min, 25°C; reference cell with nickel only; equilibrium levels fitted to a one-site equation
[1] = target: recombinant Factor H fragment rH 19-20 (human)
[2] = target: recombinant Factor H fragment rH 1-6 (human)
[3] = target: recombinant Factor H fragment rH 17-20 (human)
[4] = target: full-length recombinant Factor H (human) (UniProt P08603)
[5] = target: recombinant Factor H fragment rH 1-8 (human)
[6] = target: recombinant Factor H fragment rH 16-20 (human)
[7] = target: recombinant Factor H fragment rH 18-20 (human)
[8] = target: recombinant Factor H fragment rH 1-7 (human)

full-length recombinant Factor H (human), sequence (P08603 19-1231): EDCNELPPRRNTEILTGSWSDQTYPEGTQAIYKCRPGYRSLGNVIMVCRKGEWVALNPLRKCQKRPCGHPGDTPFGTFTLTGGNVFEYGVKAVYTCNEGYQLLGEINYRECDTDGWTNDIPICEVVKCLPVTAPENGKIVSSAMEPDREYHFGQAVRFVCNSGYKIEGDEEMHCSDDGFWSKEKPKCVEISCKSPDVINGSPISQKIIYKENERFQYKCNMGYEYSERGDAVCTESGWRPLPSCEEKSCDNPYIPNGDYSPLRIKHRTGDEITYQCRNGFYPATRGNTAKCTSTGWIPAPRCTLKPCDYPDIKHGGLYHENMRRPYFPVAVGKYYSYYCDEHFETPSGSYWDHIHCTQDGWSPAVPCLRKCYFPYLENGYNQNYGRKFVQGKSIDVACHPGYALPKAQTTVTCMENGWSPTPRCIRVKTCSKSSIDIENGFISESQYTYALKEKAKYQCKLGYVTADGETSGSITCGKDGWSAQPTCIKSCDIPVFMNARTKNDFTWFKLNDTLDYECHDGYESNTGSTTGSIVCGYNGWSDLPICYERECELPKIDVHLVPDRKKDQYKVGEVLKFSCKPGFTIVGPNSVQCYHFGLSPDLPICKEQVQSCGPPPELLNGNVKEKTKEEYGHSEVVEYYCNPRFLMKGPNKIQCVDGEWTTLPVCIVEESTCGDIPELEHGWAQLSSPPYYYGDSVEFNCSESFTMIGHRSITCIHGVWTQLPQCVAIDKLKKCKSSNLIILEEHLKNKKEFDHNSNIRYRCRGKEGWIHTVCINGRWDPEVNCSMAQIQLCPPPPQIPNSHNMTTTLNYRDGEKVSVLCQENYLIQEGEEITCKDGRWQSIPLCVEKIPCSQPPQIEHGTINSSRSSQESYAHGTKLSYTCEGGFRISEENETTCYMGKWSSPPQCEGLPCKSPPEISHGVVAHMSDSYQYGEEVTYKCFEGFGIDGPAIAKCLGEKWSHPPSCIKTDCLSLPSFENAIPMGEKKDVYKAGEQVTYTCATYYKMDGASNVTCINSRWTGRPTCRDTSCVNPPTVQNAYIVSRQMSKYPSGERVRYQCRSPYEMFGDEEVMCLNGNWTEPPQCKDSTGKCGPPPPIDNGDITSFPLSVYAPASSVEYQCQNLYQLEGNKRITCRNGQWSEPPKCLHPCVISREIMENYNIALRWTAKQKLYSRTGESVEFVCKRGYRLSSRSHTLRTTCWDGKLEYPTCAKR
C3d, sequence (P01024 1002-1303): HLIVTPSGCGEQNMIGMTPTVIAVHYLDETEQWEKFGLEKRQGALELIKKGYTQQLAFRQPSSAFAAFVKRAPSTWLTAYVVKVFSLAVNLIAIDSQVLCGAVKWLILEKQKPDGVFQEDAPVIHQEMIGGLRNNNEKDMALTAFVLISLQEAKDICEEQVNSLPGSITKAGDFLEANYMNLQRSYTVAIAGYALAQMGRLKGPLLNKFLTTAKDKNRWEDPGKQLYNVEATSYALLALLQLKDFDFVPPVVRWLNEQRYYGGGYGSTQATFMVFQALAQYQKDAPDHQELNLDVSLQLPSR

Substance: C3d (from UniProt P01024 1002-1303) (domain or fragment)
- Kd [1]: 1900 nM

Substance: C3b (domain or fragment)
- Kd [1]: 1700 nM
- Kd [2]: 80 nM
- Kd [3]: 2100 nM
- Kd [4]: 95 nM
- Kd [5]: 150 nM
- Kd [6]: 2400 nM
- Kd [7]: 1900 nM
- Kd [8]: 80 nM

Substance: iC3b (domain or fragment)
- Kd [1]: 2800 nM
- Kd [2]: 5000 nM

Substance: complement component C3 (native C3) (natural protein)
- Kd [2]: 400 nM
